Our source for the Kd and EC50 of IL-2 rescue in hTIGIT-Jurkat / THP-1 co-culture values is patent US20200270346A1.

Assay [1] addresses human TIGIT-Fc protein (human) (UniProt Q495A1). The experiment in a line: SPR, Biacore T200, antibody captured on anti-mouse IgG, TIGIT-Fc in solution, 1:1 Langmuir fit.
The target of assay [2] is Human TIGIT-His (extracellular domain of hTIGIT with a histidine tag) (human) (UniProt Q495A1). The experiment in a line: SPR, Biacore T200, antibody captured on anti-mouse IgG, TIGIT-His in solution, 1:1 Langmuir fit. A general note: SPR reads the build-up and loss of mass on a sensor chip optically.
In assay [3] the target is human TIGIT expressed on cells (human) (UniProt Q495A1). The experiment in a line: cell-based or functional assay.
human TIGIT expressed on cells (human), sequence (Q495A1 25-244): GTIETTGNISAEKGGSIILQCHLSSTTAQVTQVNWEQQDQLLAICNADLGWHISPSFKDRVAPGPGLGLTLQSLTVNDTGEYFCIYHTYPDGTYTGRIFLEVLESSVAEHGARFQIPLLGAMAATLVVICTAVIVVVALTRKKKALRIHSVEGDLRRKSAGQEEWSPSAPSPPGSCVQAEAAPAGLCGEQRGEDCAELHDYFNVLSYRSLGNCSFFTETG

Human TIGIT-His (extracellular domain of hTIGIT with a histidine tag) (human), sequence (Q495A1 25-141 limits assumed): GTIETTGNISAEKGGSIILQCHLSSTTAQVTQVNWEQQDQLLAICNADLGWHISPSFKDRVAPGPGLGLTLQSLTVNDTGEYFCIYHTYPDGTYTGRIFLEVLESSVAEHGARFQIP
human TIGIT-Fc protein (human), sequence (Q495A1 25-141): as the sequence (Q495A1 25-141 limits assumed) above

One may read the Kd as the concentration at which binding is half-saturated. On to “MBSA43 (commercial mouse anti-human TIGIT antibody, eBioscience Cat #12-9500-42)”, for which the figures for the Kd in assay [1] and in assay [2] were 0.0165 nM and 0.0363 nM, respectively. In assay [3], this substance came in with an EC50 of IL-2 rescue in hTIGIT-Jurkat / THP-1 co-culture of 0.24 µg/mL.
